These results are taken from FireProtDB (doi:10.1021/acs.biochem.6b01187).

For the data set the following is noted: Equus caballus, CD; for denaturant m value / denaturant midpoint (higher = more stable) / unfolding free energy: 22 °C, GdnHCl; for Tm / change of melting temperature, mutant - wild type (higher = more stable) / unfolding enthalpy (calorimetric): Thermal, transition: 2, reversible: yes (>83%).
[1] abbreviates: pH 4.5, sodium acetate buffer 10 mM, NaCl 100 mM, structure 1HRC.
The mark [2] stands for this setting: pH 7.4, sodium phosphate buffer 100 mM, structure 1HRC.
Setting [3] is: pH 4.5, sodium acetate buffer 10 mM, NaCl 100 mM.
Setting [4] is: pH 7.4, sodium phosphate buffer 100 mM.

Chain of Cytochrome c Y68R|M81A, P00004 Y68R M81A (P00004 whole entry Y68R/M81A): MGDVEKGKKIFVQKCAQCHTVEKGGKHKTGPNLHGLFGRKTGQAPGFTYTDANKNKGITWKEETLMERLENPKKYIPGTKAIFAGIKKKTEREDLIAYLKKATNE
Chain of Cytochrome c M81A, P00004 (P00004 whole entry M81A): as the sequence (P00004 whole entry Y68R/M81A) above, with R68Y counted along it
Chain of Cytochrome c T50V, P00004 (P00004 whole entry T50V): as the sequence (P00004 whole entry Y68R/M81A) above, with T50V, R68Y, A81M counted along it
Chain of Cytochrome c wild type, P00004 (P00004 whole entry): as the sequence (P00004 whole entry Y68R/M81A) above, with R68Y, A81M counted along it

The term Tm denotes the temperature at the midpoint of the melting transition. Cytochrome c T50V, P00004: under setting [1], the denaturant m value turned out to be 1.6 kcal/mol/M, the “denaturant midpoint (higher = more stable)” value (“denaturant midpoint” below) is 2.5 M, the unfolding free energy turned out to be 3.99 kcal/mol and the Tm worked out at 72 °C. In addition, under setting [1], the “change of melting temperature, mutant - wild type (higher = more stable)” value (“change of melting temperature, mutant” for short) is 1 °C and the “unfolding enthalpy (calorimetric)” value is 82.5 kcal/mol. Further, under setting [2], the denaturant m value is 2.68 kcal/mol/M, the “denaturant midpoint” value came to 2.7 M, the unfolding free energy is 7.22 kcal/mol and the Tm turned out to be 86 °C. Under setting [2], the “change of melting temperature, mutant” value is 1.9 °C and the “unfolding enthalpy (calorimetric)” value was found to be 83.9 kcal/mol.
Regarding “Cytochrome c Y68R|M81A, P00004 Y68R M81A”, under setting [1], the denaturant m value stood at 2.29 kcal/mol/M, the “denaturant midpoint” value came out at 1.4 M, the unfolding free energy turned out to be 3.2 kcal/mol and the Tm is 55 °C. Further, under setting [1], the “change of melting temperature, mutant” value was -16 °C and the “unfolding enthalpy (calorimetric)” value worked out at 78.4 kcal/mol. Under setting [2], the denaturant m value was determined as 2.46 kcal/mol/M, the “denaturant midpoint” value was 1.7 M, the unfolding free energy turned out to be 4.18 kcal/mol and the Tm came to 71 °C. Also, under setting [2], the “change of melting temperature, mutant” value was -13.1 °C and the “unfolding enthalpy (calorimetric)” value was found to be 82.2 kcal/mol.
For Cytochrome c M81A, P00004, under setting [1], the denaturant m value is 2.77 kcal/mol/M, the “denaturant midpoint” value stood at 2.6 M, the unfolding free energy is 2.77 kcal/mol and the Tm is 76 °C. For the same substance, under setting [1], the “change of melting temperature, mutant” value was found to be 5 °C and the “unfolding enthalpy (calorimetric)” value is 83.4 kcal/mol. Under setting [2], the denaturant m value is 2.46 kcal/mol/M, the “denaturant midpoint” value is 2.71 M, the unfolding free energy was determined as 6.67 kcal/mol and the Tm came out at 84 °C. Also, under setting [2], the “change of melting temperature, mutant” value is -0.1 °C and the “unfolding enthalpy (calorimetric)” value is 85.3 kcal/mol.
As for Cytochrome c wild type, P00004, under setting [3], the denaturant m value stood at 2.34 kcal/mol/M, the “denaturant midpoint” value is 2.6 M, the unfolding free energy was 6 kcal/mol and the Tm was found to be 71 °C. Moreover, the “unfolding enthalpy (calorimetric)” value under setting [3] is 49 kcal/mol. Under setting [4], the denaturant m value stood at 2.75 kcal/mol/M, the “denaturant midpoint” value was found to be 2.7 M, the unfolding free energy turned out to be 7.43 kcal/mol and the Tm is 84.1 °C. Further, the “unfolding enthalpy (calorimetric)” value under setting [4] is 86 kcal/mol.
